Data published in the supplement of paper PMC6755084.

B1: F1*; the commonest letter at each place (parent)
chain: GAGACCGCAACTGAAAAGTTGTTATCACTTGTCGTAAGACACTTTGGATGGGTTGAAGTTCTGCACGTAGAAGCAAAAGGC

Variants of: B1
Test: fraction ligated after 30 min (ligated reads / total reads); higher = more ligase activity
Conditions: with F1*sub RNA substrate (template-directed ligation), 42 °C
Procedure, shortened: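 The ligase ribozyme variants were produced by PCR amplification of oligo-pool templates, T7 transcription and purification on gel. Their ligated and unligated forms were gel-separated, then reverse transcribed with barcoded primers before MiSeq sequencing. Core bases were filtered at a quality of ≥20, and fraction ligated per variant was ligated reads over total reads.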

Point of comparison: GAGACCGCAACTGAAAAGTTGTTATCACTTGTTGTAAGACACTTTGGATGGGTTCAAGTTCTGCACGTAGAAGCAAAAGGC [C33T G55C], fraction ligated 0.82. Against it:
- GAGACCGCAACTGAAAAGTTGTTATCACTTGTTGCAAGACACTTTGGATGGGTTGAAGTTCTGCACGTAGAAGCAAAAGGC [C33T T35C] — higher, 0.869
- GAGACCGCAACTGAAAAGTTGTTATCACTTGTTGAAAGACACTTTGGATGGGTTGAAGTTCTGCACGTAGAAGCAAAAGGC [C33T T35A] — higher, 0.879
- GAGACCGCAACTGAAAAGTTGTTATCACTTGTTGGAAGACACTTTGGATGGGTTGAAGTTCTGCACGTAGAAGCAAAAGGC [C33T T35G] — higher, 0.854
- GAGACCGCAACTGAAAAGTTGTTATCACTTGTCATTAGACACTTTGGATGGGTTGAAGTTCTGCACGTAGAAGCAAAAGGC [G34A A36T] — higher, 0.843
- GAGACCGCAACTGAAAAGTTGTTATCACTTGTCATGAGACACTTTGGATGGGTTGAAGTTCTGCACGTAGAAGCAAAAGGC [G34A A36G] — higher, 0.846
- GAGACCGCAACTGAAAAGTTGTTATCACTTGTCATCAGACACTTTGGATGGGTTGAAGTTCTGCACGTAGAAGCAAAAGGC [G34A A36C] — higher, 0.83
- GAGACCGCAACTGAAAAGTTGTTATCACTTGTTGTAAGACACTGTGGATGGGTTGAAGTTCTGCACGTAGAAGCAAAAGGC [C33T T44G] — lower, 0.815
- GAGACCGCAACTGAAAAGTTGTTATCACTTGTTGTAAGACACTATGGATGGGTTGAAGTTCTGCACGTAGAAGCAAAAGGC [C33T T44A] — higher, 0.844
- GAGACCGCAACTGAAAAGTTGTTATCACTTGTTGTAAGACACTCTGGATGGGTTGAAGTTCTGCACGTAGAAGCAAAAGGC [C33T T44C] — higher, 0.855
- GAGACCGCAACTGAAAAGTTGTTATCACTTGTTGTAAGACAGTTTGGATGGGTTGAAGTTCTGCACGTAGAAGCAAAAGGC [C33T C42G] — higher, 0.857
- GAGACCGCAACTGAAAAGTTGTTATCACTTGTTGTAAGACATTTTGGATGGGTTGAAGTTCTGCACGTAGAAGCAAAAGGC [C33T C42T] — higher, 0.86
- GAGACCGCAACTGAAAAGTTGTTATCACTTGTTGTAAGACAATTTGGATGGGTTGAAGTTCTGCACGTAGAAGCAAAAGGC [C33T C42A] — higher, 0.842
- GAGACCGCAACTGAAAAGTTGTTATCACTTGTCATAAGACACTTTGGCTGGGTTGAAGTTCTGCACGTAGAAGCAAAAGGC [G34A A48C] — lower, 0.772
- GAGACCGCAACTGAAAAGTTGTTATCACTTGTCATAAGACACTTTGGTTGGGTTGAAGTTCTGCACGTAGAAGCAAAAGGC [G34A A48T] — lower, 0.798
- GAGACCGCAACTGAAAAGTTGTTATCACTTGTCATAAGACACTTTGGGTGGGTTGAAGTTCTGCACGTAGAAGCAAAAGGC [G34A A48G] — lower, 0.795
- GAGACCGCAACTGAAAAGTTGTTATCACTTGTTGTAAGACACTTTGGATGGGTTTAAGTTCTGCACGTAGAAGCAAAAGGC [C33T G55T] — higher, 0.839
- GAGACCGCAACTGAAAAGTTGTTATCACTTGTTGTAAGACACTTTGGATGGGTTAAAGTTCTGCACGTAGAAGCAAAAGGC [C33T G55A] — higher, 0.859
- GAGACCGCAACTGAAAAGTTGTTATCACTTGTCATAAGACACTTTGGATGGGTTGAAGTTCTGCACGTAGAAGCAAAAGGC [G34A] — higher, 0.848
- GAGACCGCAACTGAAAAGTTGTTATCACTTGTTGTAATACACTTTGGATGGGTTGAAGTTCTGCACGTAGAAGCAAAAGGC [C33T G38T] — higher, 0.847
- GAGACCGCAACTGAAAAGTTGTTATCACTTGTTGTAAAACACTTTGGATGGGTTGAAGTTCTGCACGTAGAAGCAAAAGGC [C33T G38A] — higher, 0.857
- GAGACCGCAACTGAAAAGTTGTTATCACTTGTTGTAACACACTTTGGATGGGTTGAAGTTCTGCACGTAGAAGCAAAAGGC [C33T G38C] — higher, 0.835
- GAGACCGCAACTGAAAAGTTGTTATCACTTGTCATAAGTCACTTTGGATGGGTTGAAGTTCTGCACGTAGAAGCAAAAGGC [G34A A39T] — lower, 0.818
- GAGACCGCAACTGAAAAGTTGTTATCACTTGTCATAAGGCACTTTGGATGGGTTGAAGTTCTGCACGTAGAAGCAAAAGGC [G34A A39G] — higher, 0.835
- GAGACCGCAACTGAAAAGTTGTTATCACTTGTCATAAGCCACTTTGGATGGGTTGAAGTTCTGCACGTAGAAGCAAAAGGC [G34A A39C] — lower, 0.8
- GAGACCGCAACTGAAAAGTTGTTATCACTTGTTGTAAGACACTTTGGATGGGTTGTAGTTCTGCACGTAGAAGCAAAAGGC [C33T A56T] — higher, 0.847
- GAGACCGCAACTGAAAAGTTGTTATCACTTGTTGTAAGACACTTTGGATGGGTTGACGTTCTGCACGTAGAAGCAAAAGGC [C33T A57C] — higher, 0.841
- GAGACCGCAACTGAAAAGTTGTTATCACTTGTTGTAAGACACTTTGGATGGGTTGATGTTCTGCACGTAGAAGCAAAAGGC [C33T A57T] — higher, 0.842
- GAGACCGCAACTGAAAAGTTGTTATCACTTGTTGTAAGACACTTTGGATGGGTTGAGGTTCTGCACGTAGAAGCAAAAGGC [C33T A57G] — higher, 0.861
- GAGACCGCAACTGAAAAGTTGTTATCACTTGTTCTAAGACACTTTGGATGGGTTGAAGTTCTGCACGTAGAAGCAAAAGGC [C33T G34C] — higher, 0.831
- GAGACCGCAACTGAAAAGTTGTTATCACTTGTTTTAAGACACTTTGGATGGGTTGAAGTTCTGCACGTAGAAGCAAAAGGC [C33T G34T] — higher, 0.853
- GAGACCGCAACTGAAAAGTTGTTATCACTTGTTATAAGACACTTTGGATGGGTTGAAGTTCTGCACGTAGAAGCAAAAGGC [C33T G34A] — higher, 0.855
- GAGACCGCAACTGAAAAGTTGTTATCACTTGTTGTAAGACACTTCGGATGGGTTGAAGTTCTGCACGTAGAAGCAAAAGGC [C33T T45C] — lower, 0.815
- GAGACCGCAACTGAAAAGTTGTTATCACTTGTTGTAAGACACTTGGGATGGGTTGAAGTTCTGCACGTAGAAGCAAAAGGC [C33T T45G] — lower, 0.103
